Paper PMC9040798
Residue numbers refer to the chain shown, from its start.

Key:
Assay in all cases: EMSA
Conditions in all cases: DIG gel shift kit (2nd generation, Roche), as in ref 14; buffer, salt, pH and temperature not stated
[1] = tested on: GdhR WT;GdhR P6S P6S (Neisseria gonorrhoeae;Neisseria gonorrhoeae MS11), ORF:8165ddaf+ORF:8165ddaf
[2] = tested on: T1, GdhR P6S P6S (Neisseria gonorrhoeae MS11), ORF:8165ddaf
T1 sequence: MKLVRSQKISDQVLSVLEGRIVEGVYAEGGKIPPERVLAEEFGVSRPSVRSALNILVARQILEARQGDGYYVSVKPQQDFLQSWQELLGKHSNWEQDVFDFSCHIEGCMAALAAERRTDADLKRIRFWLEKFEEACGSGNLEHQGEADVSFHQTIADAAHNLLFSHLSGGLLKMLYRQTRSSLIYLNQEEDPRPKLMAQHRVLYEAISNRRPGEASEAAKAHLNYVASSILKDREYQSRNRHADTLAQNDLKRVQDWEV

[3] = tested on: T2, GdhR WT (Neisseria gonorrhoeae), ORF:8165ddaf
T2 sequence: T1 sequence with S6P

**Q.** Which results are given for “GTGGACGGGGACGGCGCGGTATTCGTGCCGCCGGAAGAATGCTGAAAATGCCGTCTGAAGCCTTTCGGGCGGCTTTTTCTACACGCCCCTTTCCCACACTCCCTCCGCCGCATCATCACCATCCTTAACCCGCATTAATAGCCATTATCGATAAAATGCTTGACCGATTACATAAGATTACGTAAAGTGTGCAAACGCATAATAATTGGTCTTACCAATTTATCTTTTAACCAAAATATCGGGTGTGCGGGATTTGAACGTCTTTCCAAACCTCGACGCGCCTTATGATGC (double strand) [lctP promoter -313 to -23]”?
**A.** binding [1]: binds; binding [2]: binds more weakly; binding [3]: binds
